According to PMC12669651:

Legend:
[1] = ROS detection in BMSCs; conditions: glycan lost; control: wild-type Foxo3
[2] = cycloheximide chase, Western blot, Foxo3-KO BMSCs; conditions: glycan lost; control: wild-type Foxo3
[3] = O-GlcNAc at S296

B1: FOXO3: S296V (protein)
parent chain: MAEAPASPVPLSPLEVELDPEFEPQSRPRSCTWPLQRPELQASPAKPSGETAADSMIPEEDDDEDDEDGGGRASSAMVIGGGVSSTLGSGLLLEDSAMLLAPGGQDLGSGPASAAGALSGGTPTQLQPQQPLPQPQPGAAGGSGQPRKCSSRRNAWGNLSYADLITRAIESSPDKRLTLSQIYEWMVRCVPYFKDKGDSNSSAGWKNSIRHNLSLHSRFMRVQNEGTGKSSWWIINPDGGKSGKAPRRRAVSMDNSNKYTKSRGRAAKKKAALQAAPESADDSPSQLSKWPGSPTSRSSDELDAWTDFRSRTNSNASTVSGRLSPILASTELDDVQDDDGPLSPMLYSSSASLSPSVSKPCTVELPRLTDMAGTMNLNDGLAENLMDDLLDNIALPPSQPSPPGGLMQRGSSFPYTAKSSGLGSPTGSFNSTVFGPSSLNSLRQSPMQTIQENRPATFSSVSHYGNQTLQDLLASDSLSHSDVMMTQSDPLMSQASTAVSAQNARRNVMLRNDPMMSFAAQPTQGSLVNQNLLHHQHQTQGALGGSRALSNSVSNMGLSDSSSLGSAKHQQQSPASQSMQTLSDSLSGSSLYSASANLPVMGHDKFPSDLDLDMFNGSLECDMESIIRSELMDADGLDFNFDSLISTQNVVGLNVGNFTGAKQASSQSWVPG
[1]
  other: cellular ROS level: increases
[2]
  degradation_or_half_life, half_life: decreases, 12 vs 24
[3]
  degradation_or_half_life: decreases, half-life from 24 hours to 12 hours
